For the assay, the target named is HA-Ubiquitin-Vinyl Sulfone (UniProt P0CG48 1-76, vinyl sulfone (active site probe of cysteine DUBs)). Put plainly: active-site-directed labelling with HA-UbVS.

B1: UCHL5 (enzyme)
chain: MTGNAGEWCLMESDPGVFTELIKGFGCRGAQVEEIWSLEPENFEKLKPVHGLIFLFKWQPGEEPAGSVVQDSRLDTIFFAKQVINNACATQAIVSVLLNCTHQDVHLGETLSEFKEFSQSFDAAMKGLALSNSDVIRQVHNSFARQQMFEFDTKTSAKEEDAFHFVSYVPVNGRLYELDGLREGPIDLGACNQDDWISAVRPVIEKRIQKYSEGEIRFNLMAIVSDRKMIYEQKIAELQRQLAEEEPMDTDQGNSMLSAIQSEVAKNQMLIEEEVQKLKRYKIENIRRKHNYLPFIMELLKTLAEHQQLIPLVEKAKEKQNAKKAQETK
For the molecule B1, the binding result is reported as “binds”.

Source of the values: paper PMC5287571 (Biochemical pharmacology, 2016).
